From patent EP4707292A2 come the findings set out here.

The target of test [1] is Adeno-associated virus 9 (AAV9) virion (adeno-associated virus 9). Kind of test: co-IP with ADK9/LC-MS/MS, AAV9 + human serum vs control.
Test [2] has as its target Adeno-associated virus 8 (AAV8) virion (adeno-associated virus 8). Briefly: co-IP/LC-MS/MS, AAV8 + human serum vs PBS control.
The target is the same in test [3]. Briefly: cell-based or functional assay.
Test [4] has as its target Adeno-associated virus 2 (AAV2) virion (adeno-associated virus 2). Kind of test: cell-based or functional assay.
In test [5] the target is Haploid virus AAV2/8 3:1 (adeno-associated virus 2; adeno-associated virus 8). Briefly: cell-based or functional assay.
The target in test [6] is Haploid virus AAV2/8 1:3 (adeno-associated virus 2; adeno-associated virus 8). Briefly: cell-based or functional assay.
The target in test [7] is Haploid virus AAV2/8 1:1 (adeno-associated virus 2; adeno-associated virus 8). Briefly: cell-based or functional assay.

Fibronectin, P02751 32-2477, sequence (P02751 32-2477 limits assumed): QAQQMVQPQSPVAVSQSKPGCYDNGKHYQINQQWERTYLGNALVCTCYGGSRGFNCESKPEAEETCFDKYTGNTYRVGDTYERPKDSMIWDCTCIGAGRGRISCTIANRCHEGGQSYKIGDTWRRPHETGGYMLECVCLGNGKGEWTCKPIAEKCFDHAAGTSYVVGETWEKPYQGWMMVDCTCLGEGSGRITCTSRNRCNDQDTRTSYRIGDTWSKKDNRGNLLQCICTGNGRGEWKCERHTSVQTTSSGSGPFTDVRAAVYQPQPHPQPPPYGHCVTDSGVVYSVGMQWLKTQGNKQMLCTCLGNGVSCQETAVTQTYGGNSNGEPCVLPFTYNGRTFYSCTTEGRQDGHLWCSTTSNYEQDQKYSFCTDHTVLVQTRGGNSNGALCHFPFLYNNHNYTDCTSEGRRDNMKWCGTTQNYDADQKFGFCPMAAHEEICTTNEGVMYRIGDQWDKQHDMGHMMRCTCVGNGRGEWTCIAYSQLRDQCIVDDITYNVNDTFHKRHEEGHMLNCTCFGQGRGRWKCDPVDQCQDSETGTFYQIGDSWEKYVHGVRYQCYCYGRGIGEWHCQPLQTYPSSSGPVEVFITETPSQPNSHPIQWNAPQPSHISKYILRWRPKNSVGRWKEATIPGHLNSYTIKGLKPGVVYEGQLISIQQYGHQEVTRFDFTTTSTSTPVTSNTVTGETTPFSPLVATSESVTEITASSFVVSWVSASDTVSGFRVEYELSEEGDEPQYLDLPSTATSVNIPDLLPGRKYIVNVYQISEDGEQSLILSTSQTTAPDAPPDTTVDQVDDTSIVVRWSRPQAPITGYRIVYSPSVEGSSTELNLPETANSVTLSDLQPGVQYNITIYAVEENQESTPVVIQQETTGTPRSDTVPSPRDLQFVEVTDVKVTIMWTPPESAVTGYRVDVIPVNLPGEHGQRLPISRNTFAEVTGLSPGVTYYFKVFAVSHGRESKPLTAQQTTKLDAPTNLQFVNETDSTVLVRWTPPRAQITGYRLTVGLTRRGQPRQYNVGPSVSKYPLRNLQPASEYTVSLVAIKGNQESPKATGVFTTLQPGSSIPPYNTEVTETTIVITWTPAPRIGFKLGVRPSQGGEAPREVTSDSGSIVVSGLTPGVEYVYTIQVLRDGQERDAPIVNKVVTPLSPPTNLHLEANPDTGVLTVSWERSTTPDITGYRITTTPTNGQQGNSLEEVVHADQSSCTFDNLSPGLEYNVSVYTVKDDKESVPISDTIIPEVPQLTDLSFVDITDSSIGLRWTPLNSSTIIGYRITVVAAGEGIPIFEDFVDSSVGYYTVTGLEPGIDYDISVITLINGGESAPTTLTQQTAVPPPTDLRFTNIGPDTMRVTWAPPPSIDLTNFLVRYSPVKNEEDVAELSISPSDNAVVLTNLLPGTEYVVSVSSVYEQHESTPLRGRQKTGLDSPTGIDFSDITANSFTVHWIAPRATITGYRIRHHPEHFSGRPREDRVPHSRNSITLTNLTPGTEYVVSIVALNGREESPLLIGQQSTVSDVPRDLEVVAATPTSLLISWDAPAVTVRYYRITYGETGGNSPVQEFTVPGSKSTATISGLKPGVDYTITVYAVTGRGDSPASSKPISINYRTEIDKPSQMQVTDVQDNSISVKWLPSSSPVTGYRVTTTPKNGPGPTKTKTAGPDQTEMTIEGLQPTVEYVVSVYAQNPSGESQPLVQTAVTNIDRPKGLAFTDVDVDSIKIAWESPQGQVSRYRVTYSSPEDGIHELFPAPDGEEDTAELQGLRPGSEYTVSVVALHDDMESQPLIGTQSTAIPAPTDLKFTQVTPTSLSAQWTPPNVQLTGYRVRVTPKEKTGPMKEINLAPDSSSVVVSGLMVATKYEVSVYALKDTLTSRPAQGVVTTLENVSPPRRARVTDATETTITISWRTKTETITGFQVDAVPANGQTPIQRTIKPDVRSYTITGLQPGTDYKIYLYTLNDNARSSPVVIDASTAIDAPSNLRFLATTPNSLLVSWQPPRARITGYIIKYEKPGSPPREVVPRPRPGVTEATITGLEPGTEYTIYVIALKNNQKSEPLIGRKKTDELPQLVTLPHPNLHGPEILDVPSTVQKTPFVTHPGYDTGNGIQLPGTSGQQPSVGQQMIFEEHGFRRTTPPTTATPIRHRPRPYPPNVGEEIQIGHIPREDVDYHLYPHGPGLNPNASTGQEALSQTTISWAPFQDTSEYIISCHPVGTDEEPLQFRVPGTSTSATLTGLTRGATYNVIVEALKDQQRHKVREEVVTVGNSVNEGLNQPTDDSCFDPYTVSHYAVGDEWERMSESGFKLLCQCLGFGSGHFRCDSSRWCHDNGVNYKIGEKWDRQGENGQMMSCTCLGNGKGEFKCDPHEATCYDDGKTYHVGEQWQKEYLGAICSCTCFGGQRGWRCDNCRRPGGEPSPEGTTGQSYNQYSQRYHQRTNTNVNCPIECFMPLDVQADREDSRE
Ig kappa chain V-I region EU, sequence (P01602 23-117 limits assumed): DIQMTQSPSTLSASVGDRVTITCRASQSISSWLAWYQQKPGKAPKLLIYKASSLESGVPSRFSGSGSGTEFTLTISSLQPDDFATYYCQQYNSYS

Turning to “Transthyretin (from UniProt P02766 21-147)”, the fold change in test [1] and in test [2] was 5.55 fold each time.

Take “Ig lambda-2 chain C regions (from UniProt P0DOY2 1-106)”: the fold change in test [1] and in test [2] was 1.5 fold each time.

For the substance “Alpha-2-HS-glycoprotein (from UniProt C9JV77 19-301; C9JV77 342-368)”, the fold change in test [1] and in test [2] was 3.17 fold in each case.

As for “Fibrinogen gamma chain (Fragment) (from UniProt C9JU00 1-123)”, in test [1], the Fold increase was 8.36 fold and the fold change was found to be 0.417 fold. Further, the fold change in test [2] is 0.417 fold.

For the substance Monoclonal antibody A20, the Neutralization antibody titer (reciprocal dilution) in test [3] is under 2; in test [4], 512; in test [5], 2048; in test [6], under 2; in test [7], 32. In addition, the A20 neutralizing antibody titer (the dilution at first time inhibits AAV transduction over 50%) (reciprocal dilution) in test [4] is 640.

Consider “Platelet factor 4 variant (from UniProt P10720 31-104)”, for which the Fold increase in test [1] was 1.47 fold. The fold change in test [1] and in test [2] was 0.938 fold each time.

Consider “Complement C4-A (from UniProt P0C0L4 20-1744)”, for which the fold change in test [1] and in test [2] was 2.42 fold in each case.

Consider “Ig kappa chain V-I region EU (from UniProt P01602 23-117)”, for which the fold change in test [1] and in test [2] was 3.83 fold throughout.

As for Monoclonal antibody ADK8, the Neutralization antibody titer (reciprocal dilution) in test [3] is 1024; in test [4], under 2; in test [5], 512; in test [6], 1024; in test [7], 512.

In the case of “Ig kappa chain V-III region SIE (from UniProt P01619 21-116)”, the fold change in test [1] and in test [2] was 2.79 fold each time.

With Fibronectin, P02751 32-2477, in test [1], the Fold increase was found to be 5.41 fold and the fold change stood at 2.5 fold. The fold change in test [2] stood at 2.5 fold.
